Experimental data published in paper PMC7618045, “Outer membrane utilisomes mediate oligosaccharide uptake in gut Bacteroidetes” (Nature, 2023).

B1: SusC^lev (natural protein, B. thetaiotaomicron, UniProt Q8A6W3 26-1041, looked up)
chain: GQNITVKGNVTSKTDGQPIIGASVVETTATTNGTITDFDGNFTLSVPVNSTLKITYIGYKPVTVKAAAIVNVLLEEDTQMVDEVVVTGYTTQRKADLTGAVSVVKVDEIQKQGENNPVKALQGRVPGMNITADGNPSGSATVRIRGIGTLNNNDPLYIIDGVPTKAGMHELNGNDIESIQVLKDAASASIYGSRAANGVIIITTKQGKKGQIKINFDASVSASMYQSKMNVLNTEQYGRAMWQAYVNDGENPNGNALGYAYNWGYNADGNPVLYGMTLSKYLDSKNTMPVADTDWFDEITRTGVIQQYNLSVSNGSEKGSSFFSLGYYKNLGVIKDTDFDRFSARMNSDYKLIDDILTIGQHFTLNRTSEVQAPGGIIETALDIPSAIPVYASDGSWGGPVGGWPDRRNPRAVLEYNKDNRYTYWRMFGDAYVNLTPFKGFNLRSTFGLDYANKQARYFTYPYQEGTQTNNGKSAVEAKQEHWTKWMWNAIATYQLEVGKHRGDVMIGMELNREDDSHFSGYKEDFSILTPDYMWPDAGSGTAQAYGAGEGYSLVSFFGKMNYSYADRYLLSLTLRRDGSSRFGKNHRYATFPSVSLGWRITQENFMKELTWLDDLKLRASWGQTGNQEISNLARYTIYAPNYGTTDSFGGQSYGTAYDITGSNGGGVLPSGFKRNQIGNDNIKWETTTQTNVGIDFSLFKQSLYGSLEYYYKKATDILTEMAGVGVLGEGGSRWINSGAMKNQGFEFNLGYRNKTAFGLTYDLNGNISTYRNEILELPETVAANGKFGGNGVKSVVGHTYGAQVGYIADGIFKSQDEVDNHATQEGAAVGRIRYRDIDHNGVIDERDQNWIYDPTPSFSYGLNIYLEYKNFDLTMFWQGVQGVDIISDVKKKSDFWSASNVGFLNKGTRLLNAWSPTNPNSDIPALTRSDTNNEQRVSTYFVENGSFLKLRNIQLGYTVPAVISKKMRMDRLRFYCSAQNLLTIKSKNFTGEDPENPNFSYPIPVNITFGLNIGF
notes: SusC^lev, the TonB-dependent outer membrane transporter (SusC) of the levan PUL of B. thetaiotaomicron; Two copies stand in the utilisome (SusC2D2 core); written here without a tag; also called levan SusC; source: endogenous, B. thetaiotaomicron grown on fructose; co-purified from detergent-solubilised membranes (LDAO sample; DDM sample: Ni2+ column, SEC)

Columns and labels:
[1] = target: SusC^dex (B. thetaiotaomicron); experiment: cryo-EM structure; dextran utilisome (Bt3087-Bt3090), 0.05 mg/ml in 10 mM HEPES, 100 mM NaCl, pH 7.5, 0.03% DDM; heptamers, hexamers and pentamers; 3.1 Å consensus; AlphaFold2 models of SusD^dex, GH^dex and SGBP^dex docked into the map
[2] = target: the molecule itself; experiment: cryo-EM structure; apo (substrate-free) levan utilisome, 3 mg/ml in 10 mM HEPES pH 7.5, 100 mM NaCl, 0.03% DDM; ~6 Å classes, 3.5 Å focused C2 refinement without SusD

| Molecule | stoichiometry N [1] | stoichiometry N [2] |
| --- | --- | --- |
| SusC^dex (natural protein) | 2 |  |
| B1 |  | 2 |
